Test results taken from patent US20210388110A1 (published 2021).
Positions count from the first letter of the chain named.

B1: GCH054-G1dh/none-Hi-Kn010G3/L0000-k0 (antibody, human IgG1, kappa)
heavy: not shown
chain: EPKSSDKTHTCPPCPAPELLGGPSVFLFPPKPKDTLMISRTPEVTCVVVDVSHEDPEVKFNWYVDGVEVHNAKTKPREEQYNSTYRVVSVLTVLHQDWLNGKEYKCKVSNKALPAPIEKTISKAKGQPREPQVCTLPPSRDELTKNQVSLWCLVKGFYPSDIAVEWESNGQPENNYKTTPPVLDSDGSFFLYSKLTVDKSRWQQGNVFSCSVMHEALHNRYTQKSLSLSP
light: DIVMTQSPLSLPVTPGEPASISCRSSQSLVHSNRNTYLHWYQQKPGQAPRLLIYKVSNRFSGVPDRFSGSGSGTDFTLKISRVEAEDVGVYYCGQGTQVPYTFGQGTKLEIKRTVAAPSVFIFPPSDEQLKSGTASVVCLLNNFYPREAKVQWKVDNALQSGNSQESVTEQDSKDSTYSLSSTLTLSKADYEKHKVYACEVTHQGLSSPVTKSFNRGEC
notes: single-arm antibody
B2: H0610-G1dh/none-Hi-Kn010G3/L0062-k0 (antibody, human IgG1, kappa)
heavy: not shown
chain: B1 chain
light: B1 light with N35D
notes: single-arm antibody
B3: GCH067-G1dh/none-Hi-Kn010G3/L0000-k0 (antibody, human IgG1, kappa)
heavy: not shown
chain: B1 chain
light: B1 light
notes: single-arm antibody
B4: GCH056-G1dh/none-Hi-Kn010G3/L0000-k0 (antibody, human IgG1, kappa)
heavy: not shown
chain: B1 chain
light: B1 light
notes: single-arm antibody
B5: H0610-G1dh/none-Hi-Kn010G3/L0046-k0 (antibody, human IgG1, kappa)
heavy: not shown
chain: B1 chain
light: B1 light with S32V
notes: single-arm antibody
B6: GCH059-G1dh/none-Hi-Kn010G3/L0000-k0 (antibody, human IgG1, kappa)
heavy: not shown
chain: B1 chain
light: B1 light
notes: single-arm antibody
B7: H0610-G1dh/none-Hi-Kn010G3/L0069-k0 (antibody, human IgG1, kappa)
heavy: not shown
chain: B1 chain
light: B1 light with N35M
notes: single-arm antibody
B8: GCH068-G1dh/none-Hi-Kn010G3/L0000-k0 (antibody, human IgG1, kappa)
heavy: not shown
chain: B1 chain
light: B1 light
notes: single-arm antibody
B9: H0610-G1dh/none-Hi-Kn010G3/L0043-k0 (antibody, human IgG1, kappa)
heavy: not shown
chain: B1 chain
light: B1 light with S32N
notes: single-arm antibody
B10: H0610-G1dh/none-Hi-Kn010G3/L0063-k0 (antibody, human IgG1, kappa)
heavy: not shown
chain: B1 chain
light: B1 light with N35E
notes: single-arm antibody
B11: GCH094-G1dh/none-Hi-Kn010G3/L0000-k0 (antibody, human IgG1, kappa)
heavy: not shown
chain: B1 chain
light: B1 light
notes: single-arm antibody
B12: GCH056-G1dh/none-Hi-Kn010G3/L0011-k0 (antibody, human IgG1, kappa)
heavy: not shown
chain: B1 chain
light: B1 light with S28P
notes: single-arm antibody
B13: GCH100-G1dh/none-Hi-Kn010G3/L0000-k0 (antibody, human IgG1, kappa)
heavy: not shown
chain: B1 chain
light: B1 light
notes: single-arm antibody
B14: GCH061-G1dh/none-Hi-Kn010G3/L0000-k0 (antibody, human IgG1, kappa)
heavy: not shown
chain: B1 chain
light: B1 light
notes: single-arm antibody
B15: H0610-G1dh/none-Hi-Kn010G3/L0089-k0 (antibody, human IgG1, kappa)
heavy: not shown
chain: B1 chain
light: B1 light with H39L
notes: single-arm antibody
B16: GCH057-G1dh/none-Hi-Kn010G3/L0000-k0 (antibody, human IgG1, kappa)
heavy: not shown
chain: B1 chain
light: B1 light
notes: single-arm antibody
B17: GCH055-G1dh/none-Hi-Kn010G3/L0000-k0 (antibody, human IgG1, kappa)
heavy: not shown
chain: B1 chain
light: B1 light
notes: single-arm antibody

Biological target: T1, soluble human GPC3 (human, UniProt P51654 25-563, limits assumed)
T1 construct: also called glypican 3
T1 sequence (P51654 other isoform, or with tags, fused parts or gaps limits assumed, form in doubt): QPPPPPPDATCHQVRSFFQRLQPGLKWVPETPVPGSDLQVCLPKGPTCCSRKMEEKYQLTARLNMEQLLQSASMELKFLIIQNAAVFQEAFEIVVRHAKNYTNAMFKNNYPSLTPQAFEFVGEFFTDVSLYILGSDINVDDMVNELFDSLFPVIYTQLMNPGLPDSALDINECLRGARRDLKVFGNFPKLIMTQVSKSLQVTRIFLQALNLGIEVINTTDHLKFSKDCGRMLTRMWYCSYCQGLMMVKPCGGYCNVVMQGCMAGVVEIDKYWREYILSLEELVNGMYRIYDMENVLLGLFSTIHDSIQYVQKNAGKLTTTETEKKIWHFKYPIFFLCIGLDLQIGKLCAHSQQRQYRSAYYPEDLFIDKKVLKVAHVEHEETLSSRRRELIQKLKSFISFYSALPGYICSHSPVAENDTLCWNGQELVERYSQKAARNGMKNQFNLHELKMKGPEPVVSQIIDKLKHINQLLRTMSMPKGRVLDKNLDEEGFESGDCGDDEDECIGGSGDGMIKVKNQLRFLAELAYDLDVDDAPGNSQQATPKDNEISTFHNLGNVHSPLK
Assay: SPR (Biacore), single-arm antibody, soluble human GPC3

Row | Binder | Kd [nM]
1 | B1 | 5.3
2 | B2 | 5.28
3 | B3 | 5.24
4 | B4 | 5.03
5 | B5 | 5.45
6 | B6 | 5.7
7 | B7 | 5.32
8 | B8 | 6.23
9 | B9 | 5.14
10 | B10 | 6.03
11 | B11 | 5.89
12 | B12 | 4.31
13 | B13 | 5.39
14 | B14 | 5.13
15 | B15 | 5.24
16 | B16 | 5.61
17 | B17 | 5.6
